According to publication doi:10.1101/209809 (bioRxiv, 2017):

Tests used:
[1] = biological target: T1, N-terminal region of human WDR33 (residues 1-572) (human, UniProt Q9C0J8 1-572); experiment: cryo-EM structure
T1 sequence (looked up): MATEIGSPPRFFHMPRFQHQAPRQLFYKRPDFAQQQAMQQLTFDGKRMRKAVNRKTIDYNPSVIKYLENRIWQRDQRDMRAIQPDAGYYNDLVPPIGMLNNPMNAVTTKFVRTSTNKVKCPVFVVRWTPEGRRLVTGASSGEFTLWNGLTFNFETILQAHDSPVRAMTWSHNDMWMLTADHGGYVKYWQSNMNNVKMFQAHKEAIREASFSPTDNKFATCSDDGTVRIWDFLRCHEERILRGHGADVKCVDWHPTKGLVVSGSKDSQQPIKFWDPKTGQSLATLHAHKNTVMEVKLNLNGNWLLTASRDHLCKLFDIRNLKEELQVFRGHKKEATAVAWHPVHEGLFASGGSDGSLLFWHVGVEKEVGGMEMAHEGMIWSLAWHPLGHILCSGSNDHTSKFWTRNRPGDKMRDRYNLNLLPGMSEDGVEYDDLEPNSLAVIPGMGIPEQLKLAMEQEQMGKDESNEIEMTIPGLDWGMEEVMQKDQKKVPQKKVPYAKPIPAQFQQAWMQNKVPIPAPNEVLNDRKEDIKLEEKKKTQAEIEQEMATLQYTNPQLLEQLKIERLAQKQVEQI

[2] = biological target: CPSF-160–WDR33 binary complex (human, UniProt Q10570 1-1443; Q9C0J8 1-572); experiment: cryo-EM structure
Sequence of CPSF-160–WDR33 binary complex (Q10570 whole entry, one chain of several): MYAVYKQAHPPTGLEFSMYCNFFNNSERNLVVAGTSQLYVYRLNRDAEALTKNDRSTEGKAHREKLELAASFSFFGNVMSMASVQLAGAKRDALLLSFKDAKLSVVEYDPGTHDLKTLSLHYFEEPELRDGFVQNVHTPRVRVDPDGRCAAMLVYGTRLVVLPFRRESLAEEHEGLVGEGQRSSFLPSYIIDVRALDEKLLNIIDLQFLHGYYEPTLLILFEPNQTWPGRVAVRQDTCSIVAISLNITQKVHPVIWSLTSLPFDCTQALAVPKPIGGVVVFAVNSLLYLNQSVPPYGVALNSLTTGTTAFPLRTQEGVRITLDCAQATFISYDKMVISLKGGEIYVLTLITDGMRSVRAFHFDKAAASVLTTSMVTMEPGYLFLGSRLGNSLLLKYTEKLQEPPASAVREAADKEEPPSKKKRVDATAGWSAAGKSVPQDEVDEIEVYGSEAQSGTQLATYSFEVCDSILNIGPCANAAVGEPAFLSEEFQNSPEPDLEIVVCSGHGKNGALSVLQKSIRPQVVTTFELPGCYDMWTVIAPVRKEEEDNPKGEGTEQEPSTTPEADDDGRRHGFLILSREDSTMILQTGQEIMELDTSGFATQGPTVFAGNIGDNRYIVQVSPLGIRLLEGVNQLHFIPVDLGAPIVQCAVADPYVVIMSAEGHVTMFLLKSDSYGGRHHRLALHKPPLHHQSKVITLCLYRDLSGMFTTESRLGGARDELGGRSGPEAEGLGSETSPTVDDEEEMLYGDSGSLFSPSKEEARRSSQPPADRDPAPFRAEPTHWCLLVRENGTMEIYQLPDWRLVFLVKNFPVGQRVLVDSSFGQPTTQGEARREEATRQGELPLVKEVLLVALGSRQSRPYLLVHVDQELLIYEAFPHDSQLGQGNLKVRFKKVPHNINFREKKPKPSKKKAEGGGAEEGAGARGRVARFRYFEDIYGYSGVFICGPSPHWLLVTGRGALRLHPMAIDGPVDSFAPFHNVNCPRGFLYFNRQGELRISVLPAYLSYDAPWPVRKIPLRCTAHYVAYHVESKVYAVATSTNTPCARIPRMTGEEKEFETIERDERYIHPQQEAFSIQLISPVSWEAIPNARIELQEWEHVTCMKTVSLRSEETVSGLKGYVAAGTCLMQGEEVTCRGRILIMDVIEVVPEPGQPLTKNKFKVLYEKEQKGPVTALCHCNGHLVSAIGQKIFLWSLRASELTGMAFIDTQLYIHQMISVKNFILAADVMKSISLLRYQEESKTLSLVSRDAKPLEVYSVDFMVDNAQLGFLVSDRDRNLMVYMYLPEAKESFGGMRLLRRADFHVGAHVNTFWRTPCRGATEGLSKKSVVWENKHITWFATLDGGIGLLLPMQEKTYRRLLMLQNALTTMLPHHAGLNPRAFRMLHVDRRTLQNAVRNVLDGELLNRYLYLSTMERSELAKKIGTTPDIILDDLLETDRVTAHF

[3] = biological target: T2, CPSF-160;WDR33 (1-572);CPSF-30 (human;human;human, UniProt Q10570;Q9C0J8;O95639-2 1-1443;1-572;1-244, ||); experiment: cryo-EM structure
T2 sequence (Q10570 whole entry, one chain of several): as above

[4] = biological target: T2, CPSF-160;WDR33 (1-572);CPSF-30; experiment: EMSA
[5] = biological target: CPSF-160;WDR33 (1-572);MBP-CPSF-30(33-170) (human;human;human, UniProt Q10570;Q9C0J8;O95639-2 1-1443;1-572;33-170, ||); experiment: EMSA
Sequence of CPSF-160;WDR33 (1-572);MBP-CPSF-30(33-170) (Q10570 whole entry, chain 1 of 2, one chain of several): as the sequence (Q10570 whole entry, one chain of several) above

B1: full-length human CPSF-30 (isoform 2), MBP removed by TEV protease (natural protein, UniProt O95639-2 1-244, looked up)
chain: MQEIIASVDHIKFDLEIAVEQQLGAQPLPFPGMDKSGAAVCEFFLKAACGKGGMCPFRHISGEKTVVCKHWLRGLCKKGDQCEFLHEYDMTKMPECYFYSKFGECSNKECPFLHIDPESKIKDCPWYDRGFCKHGPLCRHRHTRRVICVNYLVGFCPEGPSCKFMHPRFELPMGTTEQPPLPQQTQPPAKQRTPQVIGVMQSQNSSAGNRGPRPLEQVTCYKCGEKGHYANRCTKGHLAFLSGQ
binding result [1]: binds
binding result [2]: binds

AACCUCCAAUAAACAAC (ssRNA) [17-mer PAS RNA, unlabeled (EM)]
binding result [3]: binds

AACCUCCAAUAAACAAC (ssRNA) [17-mer PAS RNA (AAUAAA)]
binding result [4]: binds
binding result [5]: binds
